# Results as given in US20090263395.
# Target: Histone H1 (UPSTATE, Lake Placid, N.Y.)
row,Protein,"kinase activity (immune complex kinase assay, [gamma-32P]-ATP)"
1,"A2282 protein, wild type (A2282V1, MELK), HA-tagged, immunoprecipitated from HEK 293 cells (protein) MKDYDELLKYYELHETIGTGGFAKVKLACHILTGEMVAIKIMDKNTLGSDLPRIKTEIEALKNLRHQHICQLYHVLETANKIFMVLEYCPGGELFDYIISQDRLSEEETRVVFRQIVSAVAYVHSQGYAHRDLKPENLLFDEYHKLKLIDFGLCAKPKGNKDYHLQTCCGSLAYAAPELIQGKSYLGSEADVWSMGILLYVLMCGFLPFDDDNVMALYKKIMRGKYDVPKWLSPSSILLLQQMLQVDPKKRISMKNLLNHPWIMQDYNYPVEWQSKNPFIHLDDDCVTELSVHHRNNRQTMEDLISLWQYDHLTATYLLLLAKKARGKPVRLRLSSFSCGQASATPFTDIKSNNWSLEDVTASDKNYVAGLIDYDWCEDDLSTGAATPRTSQFTKYWTESNGVESKSLTPALCRTPANKLKNKENVYTPKSAVKNEEYFMFPEPKTPVNKNQHKREILTTPNRYTTPSKARNQCLKETPIKIPVNSTGTDKLMTGVISPERRCRSVELDLNQAHMEETPKRKGAKVFGSLERGLDKVITVLTRSKRKGSARDGPRRLKLHYNVTTTRLVNPDQLLNEIMSILPKKHVDFVQKGYTLKCQTQSDFGKVTMQFELEVCQLQKPDVVGIRRQRLKGDAWVYKRLVEDILSSCKV",wild type and T478A proteins possessing intact kinase domain was observed phosphorylated Histone H1 in vitro
2,"A2282 protein D150A mutant, HA-tagged (protein) MKDYDELLKYYELHETIGTGGFAKVKLACHILTGEMVAIKIMDKNTLGSDLPRIKTEIEALKNLRHQHICQLYHVLETANKIFMVLEYCPGGELFDYIISQDRLSEEETRVVFRQIVSAVAYVHSQGYAHRDLKPENLLFDEYHKLKLIAFGLCAKPKGNKDYHLQTCCGSLAYAAPELIQGKSYLGSEADVWSMGILLYVLMCGFLPFDDDNVMALYKKIMRGKYDVPKWLSPSSILLLQQMLQVDPKKRISMKNLLNHPWIMQDYNYPVEWQSKNPFIHLDDDCVTELSVHHRNNRQTMEDLISLWQYDHLTATYLLLLAKKARGKPVRLRLSSFSCGQASATPFTDIKSNNWSLEDVTASDKNYVAGLIDYDWCEDDLSTGAATPRTSQFTKYWTESNGVESKSLTPALCRTPANKLKNKENVYTPKSAVKNEEYFMFPEPKTPVNKNQHKREILTTPNRYTTPSKARNQCLKETPIKIPVNSTGTDKLMTGVISPERRCRSVELDLNQAHMEETPKRKGAKVFGSLERGLDKVITVLTRSKRKGSARDGPRRLKLHYNVTTTRLVNPDQLLNEIMSILPKKHVDFVQKGYTLKCQTQSDFGKVTMQFELEVCQLQKPDVVGIRRQRLKGDAWVYKRLVEDILSSCKV",completely abolished in D150A protein
3,"A2282 protein T478A mutant, HA-tagged (protein) MKDYDELLKYYELHETIGTGGFAKVKLACHILTGEMVAIKIMDKNTLGSDLPRIKTEIEALKNLRHQHICQLYHVLETANKIFMVLEYCPGGELFDYIISQDRLSEEETRVVFRQIVSAVAYVHSQGYAHRDLKPENLLFDEYHKLKLIDFGLCAKPKGNKDYHLQTCCGSLAYAAPELIQGKSYLGSEADVWSMGILLYVLMCGFLPFDDDNVMALYKKIMRGKYDVPKWLSPSSILLLQQMLQVDPKKRISMKNLLNHPWIMQDYNYPVEWQSKNPFIHLDDDCVTELSVHHRNNRQTMEDLISLWQYDHLTATYLLLLAKKARGKPVRLRLSSFSCGQASATPFTDIKSNNWSLEDVTASDKNYVAGLIDYDWCEDDLSTGAATPRTSQFTKYWTESNGVESKSLTPALCRTPANKLKNKENVYTPKSAVKNEEYFMFPEPKTPVNKNQHKREILTTPNRYTTPSKARNQCLKEAPIKIPVNSTGTDKLMTGVISPERRCRSVELDLNQAHMEETPKRKGAKVFGSLERGLDKVITVLTRSKRKGSARDGPRRLKLHYNVTTTRLVNPDQLLNEIMSILPKKHVDFVQKGYTLKCQTQSDFGKVTMQFELEVCQLQKPDVVGIRRQRLKGDAWVYKRLVEDILSSCKV",wild type and T478A proteins possessing intact kinase domain was observed phosphorylated Histone H1 in vitro
4,"A2282 protein T167A mutant, HA-tagged (protein) MKDYDELLKYYELHETIGTGGFAKVKLACHILTGEMVAIKIMDKNTLGSDLPRIKTEIEALKNLRHQHICQLYHVLETANKIFMVLEYCPGGELFDYIISQDRLSEEETRVVFRQIVSAVAYVHSQGYAHRDLKPENLLFDEYHKLKLIDFGLCAKPKGNKDYHLQACCGSLAYAAPELIQGKSYLGSEADVWSMGILLYVLMCGFLPFDDDNVMALYKKIMRGKYDVPKWLSPSSILLLQQMLQVDPKKRISMKNLLNHPWIMQDYNYPVEWQSKNPFIHLDDDCVTELSVHHRNNRQTMEDLISLWQYDHLTATYLLLLAKKARGKPVRLRLSSFSCGQASATPFTDIKSNNWSLEDVTASDKNYVAGLIDYDWCEDDLSTGAATPRTSQFTKYWTESNGVESKSLTPALCRTPANKLKNKENVYTPKSAVKNEEYFMFPEPKTPVNKNQHKREILTTPNRYTTPSKARNQCLKETPIKIPVNSTGTDKLMTGVISPERRCRSVELDLNQAHMEETPKRKGAKVFGSLERGLDKVITVLTRSKRKGSARDGPRRLKLHYNVTTTRLVNPDQLLNEIMSILPKKHVDFVQKGYTLKCQTQSDFGKVTMQFELEVCQLQKPDVVGIRRQRLKGDAWVYKRLVEDILSSCKV",This activity was severely compromised in T167A mutant
